# Test results published in IntAct's records for PubMed 31515488.
# B1: E3 ubiquitin-protein ligase TRIM69 (Homo sapiens), Q86WT6 (parent)
# chain: MEVSTNPSSNIDPGDYVEMNDSITHLPSKVVIQDITMELHCPLCNDWFRDPLMLSCGHNFCEACIQDFWRLQAKETFCPECKMLCQYNNCTFNPVLDKLVEKIKKLPLLKGHPQCPEHGENLKLFSKPDGKLICFQCKDARLSVGQSKEFLQISDAVHFFTEELAIQQGQLETTLKELQTLRNMQKEAIAAHKENKLHLQQHVSMEFLKLHQFLHSKEKDILTELREEGKALNEEMELNLSQLQEQCLLAKDMLVSIQAKTEQQNSFDFLKDITTLLHSLEQGMKVLATRELISRKLNLGQYKGPIQYMVWREMQDTLCPGLSPLTLDPKTAHPNLVLSKSQTSVWHGDIKKIMPDDPERFDSSVAVLGSRGFTSGKWYWEVEVAKKTKWTVGVVRESIIRKGSCPLTPEQGFWLLRLRNQTDLKALDLPSFSLTLTNNLDKVGIYLDYEGGQLSFYNAKTMTHIYTFSNTFMEKLYPYFCPCLNDGGENKEPLHILHPQ
# B2: Microtubule-associated tumor suppressor candidate 2 (Homo sapiens), Q5JR59-3 (parent)
# chain: MGHCCCKPYNCLQCLDKTNESALVKEKELSIELANIRDEVAFHTAKCEKLQKEKEELERRFEDEVKRLGWQQQAELQELEERLQLQFEAEMARLQEEHGDQLLSIRCQHQEQVEDLTASHDAALLEMENNHTVAITILQDDHDHKVQELMSTHELEKKELEENFEKLRLSLQDQVDTLTFQSQSLRDRARRFEEALRKNTEEQLEIALAPYQHLEEDMKSLKQVLEMKNQQIHEQEKKILELEKLAEKNIILEEKIQVLQQQNEDLKARIDQNTVVTRQLSEENANLQEYVEKETQEKKRLSRTNEELLWKLQTGDPTSPIKLSPTSPVYRGSSSGPSSPARVSTTPR
# partner: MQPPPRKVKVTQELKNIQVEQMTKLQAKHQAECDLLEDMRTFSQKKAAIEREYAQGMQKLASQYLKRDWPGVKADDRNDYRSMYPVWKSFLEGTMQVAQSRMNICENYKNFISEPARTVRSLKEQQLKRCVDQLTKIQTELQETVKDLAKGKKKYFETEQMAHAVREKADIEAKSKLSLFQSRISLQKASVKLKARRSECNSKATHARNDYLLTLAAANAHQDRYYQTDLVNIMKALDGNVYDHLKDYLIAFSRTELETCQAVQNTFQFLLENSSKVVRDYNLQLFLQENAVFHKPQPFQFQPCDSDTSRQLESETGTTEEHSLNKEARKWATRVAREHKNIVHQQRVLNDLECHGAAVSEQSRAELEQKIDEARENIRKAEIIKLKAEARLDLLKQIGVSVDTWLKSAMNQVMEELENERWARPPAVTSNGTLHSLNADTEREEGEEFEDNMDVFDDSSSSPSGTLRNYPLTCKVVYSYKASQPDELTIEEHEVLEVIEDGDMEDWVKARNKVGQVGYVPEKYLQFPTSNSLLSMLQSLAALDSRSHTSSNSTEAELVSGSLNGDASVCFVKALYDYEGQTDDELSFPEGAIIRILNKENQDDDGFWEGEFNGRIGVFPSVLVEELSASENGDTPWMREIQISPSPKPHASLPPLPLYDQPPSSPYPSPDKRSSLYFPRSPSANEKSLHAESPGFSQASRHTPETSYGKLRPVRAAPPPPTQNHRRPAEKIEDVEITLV
# B3: Four and a half LIM domains protein 2 (Homo sapiens), Q14192 (parent)
# chain: MTERFDCHHCNESLFGKKYILREESPYCVVCFETLFANTCEECGKPIGCDCKDLSYKDRHWHEACFHCSQCRNSLVDKPFAAKEDQLLCTDCYSNEYSSKCQECKKTIMPGTRKMEYKGSSWHETCFICHRCQQPIGTKSFIPKDNQNFCVPCYEKQHAMQCVQCKKPITTGGVTYREQPWHKECFVCTACRKQLSGQRFTARDDFAYCLNCFCDLYAKKCAGCTNPISGLGGTKYISFEERQWHNDCFNCKKCSLSLVGRGFLTERDDILCPDCGKDI
# partner: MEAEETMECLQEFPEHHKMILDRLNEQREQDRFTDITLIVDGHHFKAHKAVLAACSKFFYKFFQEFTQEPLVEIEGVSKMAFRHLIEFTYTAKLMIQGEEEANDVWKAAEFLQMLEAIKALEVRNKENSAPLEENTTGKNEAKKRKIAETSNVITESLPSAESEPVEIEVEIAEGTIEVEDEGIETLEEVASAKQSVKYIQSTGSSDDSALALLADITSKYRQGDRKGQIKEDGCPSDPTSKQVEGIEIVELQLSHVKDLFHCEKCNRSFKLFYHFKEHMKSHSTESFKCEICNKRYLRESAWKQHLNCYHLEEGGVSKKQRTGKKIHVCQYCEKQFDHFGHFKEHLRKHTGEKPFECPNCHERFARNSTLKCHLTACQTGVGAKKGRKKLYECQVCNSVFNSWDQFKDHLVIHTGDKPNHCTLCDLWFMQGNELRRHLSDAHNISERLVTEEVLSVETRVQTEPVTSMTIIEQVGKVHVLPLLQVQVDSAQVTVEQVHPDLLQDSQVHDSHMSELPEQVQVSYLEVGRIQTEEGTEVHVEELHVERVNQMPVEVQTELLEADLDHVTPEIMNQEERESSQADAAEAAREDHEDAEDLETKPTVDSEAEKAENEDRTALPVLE
# B4: Ribonuclease P protein subunit p30 (Homo sapiens), P78346 (parent)
# chain: MAVFADLDLRAGSDLKALRGLVETAAHLGYSVVAINHIVDFKEKKQEIEKPVAVSELFTTLPIVQGKSRPIKILTRLTIIVSDPSHCNVLRATSSRARLYDVVAVFPKTEKLFHIACTHLDVDLVCITVTEKLPFYFKRPPINVAIDRGLAFELVYSPAIKDSTMRRYTISSALNLMQICKGKNVIISSAAERPLEIRGPYDVANLGLLFGLSESDAKAAVSTNCRAALLHGETRKTAFGIISTVKKPRPSEGDEDCLPASKKAKCEG
# B5: Protein BEX5 (Homo sapiens), Q5H9J7 (parent)
# chain: MENVPKENKVVEKAPVQNEAPALGGGEYQEPGGNVKGVWAPPAPGFGEDVPNRLVDNIDMIDGDGDDMERFMEEMRELRRKIRELQLRYSLRILIGDPPHHDHHDEFCLMP
# partner: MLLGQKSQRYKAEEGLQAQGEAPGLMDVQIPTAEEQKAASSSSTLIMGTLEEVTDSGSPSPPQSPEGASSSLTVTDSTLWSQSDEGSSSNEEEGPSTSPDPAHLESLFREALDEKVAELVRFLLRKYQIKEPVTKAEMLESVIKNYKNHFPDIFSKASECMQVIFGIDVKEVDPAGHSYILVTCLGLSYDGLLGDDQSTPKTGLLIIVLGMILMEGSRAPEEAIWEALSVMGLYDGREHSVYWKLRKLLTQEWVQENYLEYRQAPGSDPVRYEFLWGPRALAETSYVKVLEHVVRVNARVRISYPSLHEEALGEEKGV
# B6: Alpha-ketoglutarate-dependent dioxygenase alkB homolog 4 (Homo sapiens), Q9NXW9 (parent)
# chain: MAAAAAETPEVLRECGCKGIRTCLICERQRGSDPPWELPPAKTYRFIYCSDTGWAVGTEESDFEGWAFPFPGVMLIEDFVTREEEAELVRLMDRDPWKLSQSGRRKQDYGPKVNFRKQKLKTEGFCGLPSFSREVVRRMGLYPGLEGFRPVEQCNLDYCPERGSAIDPHLDDAWLWGERLVSLNLLSPTVLSMCREAPGSLLLCSAPSAAPEALVDSVIAPSRSVLCQEVEVAIPLPARSLLVLTGAARHQWKHAIHRRHIEARRVCVTFRELSAEFGPGGRQQELGQELLRIALSFQGRPV
# partner: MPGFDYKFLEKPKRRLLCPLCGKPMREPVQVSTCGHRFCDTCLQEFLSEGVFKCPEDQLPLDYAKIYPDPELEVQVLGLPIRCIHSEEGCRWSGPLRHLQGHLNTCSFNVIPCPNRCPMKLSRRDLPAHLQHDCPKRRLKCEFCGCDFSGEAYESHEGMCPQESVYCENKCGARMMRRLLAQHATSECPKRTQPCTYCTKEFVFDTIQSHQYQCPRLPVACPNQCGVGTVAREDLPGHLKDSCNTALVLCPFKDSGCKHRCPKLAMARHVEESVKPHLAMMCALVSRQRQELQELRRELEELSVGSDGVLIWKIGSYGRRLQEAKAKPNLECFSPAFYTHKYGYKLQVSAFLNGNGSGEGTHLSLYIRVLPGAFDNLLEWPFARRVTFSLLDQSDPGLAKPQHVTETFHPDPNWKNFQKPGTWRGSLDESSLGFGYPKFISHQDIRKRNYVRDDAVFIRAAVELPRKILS
# B7: STAM-binding protein (Homo sapiens), O95630 (parent)
# chain: MSDHGDVSLPPEDRVRALSQLGSAVEVNEDIPPRRYFRSGVEIIRMASIYSEEGNIEHAFILYNKYITLFIEKLPKHRDYKSAVIPEKKDTVKKLKEIAFPKAEELKAELLKRYTKEYTEYNEEKKKEAEELARNMAIQQELEKEKQRVAQQKQQQLEQEQFHAFEEMIRNQELEKERLKIVQEFGKVDPGLGGPLVPDLEKPSLDVFPTLTVSSIQPSDCHTTVRPAKPPVVDRSLKPGALSNSESIPTIDGLRHVVVPGRLCPQFLQLASANTARGVETCGILCGKLMRNEFTITHVLIPKQSAGSDYCNTENEEELFLIQDQQGLITLGWIHTHPTQTAFLSSVDLHTHCSYQMMLPESVAIVCSPKFQETGFFKLTDHGLEEISSCRQKGFHPHSKDPPLFCSCSHVTVVDRAVTITDLR
# partner: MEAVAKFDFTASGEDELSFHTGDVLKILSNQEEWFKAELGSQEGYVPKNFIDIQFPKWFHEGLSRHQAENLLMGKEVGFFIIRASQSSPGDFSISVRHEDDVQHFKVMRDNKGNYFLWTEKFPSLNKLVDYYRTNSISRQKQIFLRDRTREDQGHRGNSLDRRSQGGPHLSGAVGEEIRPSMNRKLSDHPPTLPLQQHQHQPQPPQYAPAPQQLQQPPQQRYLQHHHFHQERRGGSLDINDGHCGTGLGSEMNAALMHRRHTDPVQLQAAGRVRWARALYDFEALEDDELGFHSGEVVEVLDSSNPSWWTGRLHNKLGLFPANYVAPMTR
# B8: Nuclear protein AMMECR1 (Homo sapiens), Q9Y4X0 (parent)
# chain: MAAGCCGVKKQKLSSSPPSGSGGGGGASSSSHCSGESQCRAGELGLGGAGTRLNGLGGLTGGGSGSGCTLSPPQGCGGGGGGIALSPPPSCGVGTLLSTPAAATSSSPSSSSAASSSSPGSRKMVVSAEMCCFCFDVLYCHLYGYQQPRTPRFTNEPYPLFVTWKIGRDKRLRGCIGTFSAMNLHSGLREYTLTSALKDSRFPPMTRDELPRLFCSVSLLTNFEDVCDYLDWEVGVHGIRIEFINEKGSKRTATYLPEVAKEQGWDHIQTIDSLLRKGGYKAPITNEFRKTIKLTRYRSEKMTLSYAEYLAHRQHHHFQNGIGHPLPPYNHYS
# partner: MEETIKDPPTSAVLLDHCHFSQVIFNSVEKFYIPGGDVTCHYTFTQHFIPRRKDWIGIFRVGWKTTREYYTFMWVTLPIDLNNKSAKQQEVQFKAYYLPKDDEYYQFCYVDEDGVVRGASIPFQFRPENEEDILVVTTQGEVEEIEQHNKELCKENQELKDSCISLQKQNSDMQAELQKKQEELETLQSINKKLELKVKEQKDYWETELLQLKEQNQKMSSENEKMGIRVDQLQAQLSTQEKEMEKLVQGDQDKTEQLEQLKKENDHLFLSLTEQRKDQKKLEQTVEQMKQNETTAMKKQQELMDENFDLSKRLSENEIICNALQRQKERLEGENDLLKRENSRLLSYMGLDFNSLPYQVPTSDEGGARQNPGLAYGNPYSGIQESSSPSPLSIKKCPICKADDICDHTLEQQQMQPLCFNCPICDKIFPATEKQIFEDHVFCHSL
# Variants of: B1
# Conditions: with at5g1_human ATP5MC1, P05496
# Sequence of at5g1_human ATP5MC1, P05496 (P05496 whole entry): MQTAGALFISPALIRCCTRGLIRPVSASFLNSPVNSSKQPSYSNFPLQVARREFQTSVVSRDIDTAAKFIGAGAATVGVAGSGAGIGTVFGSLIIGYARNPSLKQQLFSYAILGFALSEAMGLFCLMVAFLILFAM
row,Variant,effect of a mutation on the interaction
1,Q301H,with no effect

# Variants of: B1
# Conditions: with maga4_human MAGEA4, P43358
# Sequence of maga4_human MAGEA4, P43358 (P43358 whole entry): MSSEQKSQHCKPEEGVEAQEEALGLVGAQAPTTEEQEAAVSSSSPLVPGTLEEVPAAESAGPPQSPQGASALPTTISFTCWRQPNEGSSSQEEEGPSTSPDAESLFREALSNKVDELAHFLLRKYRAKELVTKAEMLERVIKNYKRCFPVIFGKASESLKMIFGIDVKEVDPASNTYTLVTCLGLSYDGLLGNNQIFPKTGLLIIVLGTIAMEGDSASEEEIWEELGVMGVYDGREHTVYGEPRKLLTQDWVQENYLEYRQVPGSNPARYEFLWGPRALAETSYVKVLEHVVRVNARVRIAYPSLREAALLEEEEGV
row,Variant,effect of a mutation on the interaction
1,Q301H,with no effect

# Variants of: B2
# Conditions: with fcsd2_human FCHSD2, O94868
row,Variant,effect of a mutation on the interaction
1,A89V,with no effect

# Variants of: B3
# Conditions: with zn131_human ZNF131, P52739
row,Variant,effect of a mutation on the interaction
1,N95K,with no effect
2,A37S,with no effect

# Variants of: B4
# Conditions: with hm20a_human HMG20A
row,Variant,effect of a mutation on the interaction
1,G12D,with no effect

# Variants of: B5
# Conditions: with maga8_human MAGEA8, P43361
row,Variant,effect of a mutation on the interaction
1,E74D,with no effect

# Variants of: B6
# Conditions: with traf4_human TRAF4, Q9BUZ4
row,Variant,effect of a mutation on the interaction
1,R239C,disrupting interaction strength

# Variants of: B7
# Conditions: with grap2_human GRAP2, O75791
row,Variant,effect of a mutation on the interaction
1,Q155H,disrupting interaction strength
2,R255H,with no effect

# Variants of: B8
# Conditions: with caco2_human CALCOCO2, Q13137
row,Variant,effect of a mutation on the interaction
1,R207G,disrupting interaction strength
